Laboratory results as given in patent US20200262868A1 (DIGNIFY THERAPEUTICS, published 2020).
Where no end group is shown, it is not given here. [ ]: non-standard residue; d: D form. NMeL = CN[C@@H](CC(C)C)C(=O)O; Nle = CCCC[C@H](N)C(=O)O

T1: human NK2 Receptor (human, UniProt P21452 1-398)
T1 sequence (looked up): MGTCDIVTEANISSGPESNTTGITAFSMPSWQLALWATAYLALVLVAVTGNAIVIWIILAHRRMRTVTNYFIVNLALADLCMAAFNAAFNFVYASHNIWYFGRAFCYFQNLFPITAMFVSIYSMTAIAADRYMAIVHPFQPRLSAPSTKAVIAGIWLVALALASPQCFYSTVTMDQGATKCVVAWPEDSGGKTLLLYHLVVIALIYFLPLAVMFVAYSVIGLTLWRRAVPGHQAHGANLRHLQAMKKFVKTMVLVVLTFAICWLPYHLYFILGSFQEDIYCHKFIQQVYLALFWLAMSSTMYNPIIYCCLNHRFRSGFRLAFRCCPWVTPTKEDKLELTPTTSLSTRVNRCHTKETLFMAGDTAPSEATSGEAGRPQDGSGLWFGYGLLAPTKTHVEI

B1: Heptapeptide analog A, Asp-Lys-Phe-Val-Gly-(NMe-Leu)-Met-NH2 (peptide)
peptide: DKFVG[NMeL]M-NH2
notes: synthetic heptapeptide analog of neurokinin A, Fmoc solid-phase synthesis; also called Compound A; Cmpd A
B2: Heptapeptide analog C, Asp-Arg-Phe-Val-Gly-(NMe-Leu)-Met-NH2 (peptide)
peptide: DRFVGLM
HELM: PEPTIDE1{D.R.F.V.G.[meL].M.[am]}$$$$V2.0; N-terminus assumed
SMILES: CSCC[C@H](NC(=O)[C@H](CC(C)C)N(C)C(=O)CNC(=O)[C@@H](NC(=O)[C@H](Cc1ccccc1)NC(=O)[C@H](CCCNC(=N)N)NC(=O)[C@@H](N)CC(=O)O)C(C)C)C(N)=O
notes: synthetic heptapeptide analog of neurokinin A, Fmoc solid-phase synthesis; also called Compound C; Cmpd C
B3: Heptapeptide analog H, Asp-Arg-Phe-Val-Gly-Leu-Met-NH2 (peptide)
peptide: DRFVGLM-NH2
notes: synthetic heptapeptide analog of neurokinin A, Fmoc solid-phase synthesis; also called Compound H; Cmpd H
B4: Heptapeptide analog E, Asp-Lys-Phe-Val-(β-Ala)-Leu-Met-NH2 (peptide)
peptide: DKFVALM
HELM: PEPTIDE1{D.K.F.V.[bAla].L.M.[am]}$$$$V2.0; N-terminus assumed
SMILES: CSCC[C@H](NC(=O)[C@H](CC(C)C)NC(=O)CCNC(=O)[C@@H](NC(=O)[C@H](Cc1ccccc1)NC(=O)[C@H](CCCCN)NC(=O)[C@@H](N)CC(=O)O)C(C)C)C(N)=O
notes: synthetic heptapeptide analog of neurokinin A, Fmoc solid-phase synthesis; also called Compound E; Cmpd E
B5: Heptapeptide analog I, Asp-Arg-Phe-Val-(β-Ala)-Leu-Met-NH2 (peptide)
peptide: DRFVALM
HELM: PEPTIDE1{D.R.F.V.[bAla].L.M.[am]}$$$$V2.0; N-terminus assumed
SMILES: CSCC[C@H](NC(=O)[C@H](CC(C)C)NC(=O)CCNC(=O)[C@@H](NC(=O)[C@H](Cc1ccccc1)NC(=O)[C@H](CCCNC(=N)N)NC(=O)[C@@H](N)CC(=O)O)C(C)C)C(N)=O
notes: synthetic heptapeptide analog of neurokinin A, Fmoc solid-phase synthesis; also called Compound I; Cmpd I
B6: Heptapeptide analog B, Asp-Arg-Phe-Val-Gly-(NMe-Leu)-Nle-NH2 (peptide)
peptide: DRFVG[NMeL][Nle]-NH2
notes: synthetic heptapeptide analog of neurokinin A, Fmoc solid-phase synthesis; also called Compound B; Cmpd B
B7: Heptapeptide analog K, Asp-Arg-Phe-Val-(β-Ala)-Leu-Nle-NH2 (peptide)
peptide: DRFVALX
HELM: PEPTIDE1{D.R.F.V.[bAla].L.[Nle].[am]}$$$$V2.0; N-terminus assumed
SMILES: CCCC[C@H](NC(=O)[C@H](CC(C)C)NC(=O)CCNC(=O)[C@@H](NC(=O)[C@H](Cc1ccccc1)NC(=O)[C@H](CCCNC(=N)N)NC(=O)[C@@H](N)CC(=O)O)C(C)C)C(N)=O
notes: synthetic heptapeptide analog of neurokinin A, Fmoc solid-phase synthesis; also called Compound K; Cmpd K
B8: Heptapeptide analog G, Asp-Lys-Phe-Val-(β-Ala)-Leu-Nle-NH2 (peptide)
peptide: DKFVALX
HELM: PEPTIDE1{D.K.F.V.[bAla].L.[Nle].[am]}$$$$V2.0; N-terminus assumed
SMILES: CCCC[C@H](NC(=O)[C@H](CC(C)C)NC(=O)CCNC(=O)[C@@H](NC(=O)[C@H](Cc1ccccc1)NC(=O)[C@H](CCCCN)NC(=O)[C@@H](N)CC(=O)O)C(C)C)C(N)=O
notes: synthetic heptapeptide analog of neurokinin A, Fmoc solid-phase synthesis; also called Compound G; Cmpd G
B9: Heptapeptide analog J, Asp-Arg-Phe-Val-Gly-Leu-Nle-NH2 (peptide)
peptide: DRFVGLX
HELM: PEPTIDE1{D.R.F.V.G.L.[Nle].[am]}$$$$V2.0; N-terminus assumed
SMILES: CCCC[C@H](NC(=O)[C@H](CC(C)C)NC(=O)CNC(=O)[C@@H](NC(=O)[C@H](Cc1ccccc1)NC(=O)[C@H](CCCNC(=N)N)NC(=O)[C@@H](N)CC(=O)O)C(C)C)C(N)=O
notes: synthetic heptapeptide analog of neurokinin A, Fmoc solid-phase synthesis; also called Compound J; Cmpd J

Key:
human NK2 Receptor [1] = target: T1, human NK2 Receptor; assay: cell-based or functional assay
human NK1 Receptor [2] = target: T2, human NK1 Receptor (human, UniProt P25103 1-407); assay: cell-based or functional assay
T2 sequence (P25103 whole entry): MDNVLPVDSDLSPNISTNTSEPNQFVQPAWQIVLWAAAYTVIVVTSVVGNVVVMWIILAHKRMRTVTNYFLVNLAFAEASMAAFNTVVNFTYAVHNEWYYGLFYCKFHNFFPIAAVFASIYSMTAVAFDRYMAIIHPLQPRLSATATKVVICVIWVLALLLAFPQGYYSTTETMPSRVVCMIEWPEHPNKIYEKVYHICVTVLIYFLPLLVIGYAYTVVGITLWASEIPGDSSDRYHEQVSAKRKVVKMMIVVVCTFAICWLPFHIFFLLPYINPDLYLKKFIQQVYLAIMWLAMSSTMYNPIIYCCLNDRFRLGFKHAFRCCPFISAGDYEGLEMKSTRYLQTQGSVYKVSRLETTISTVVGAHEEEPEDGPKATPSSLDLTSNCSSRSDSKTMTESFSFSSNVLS

human NK2 Receptor [3] = target: T1, human NK2 Receptor; assay: radioligand competition, displacement of 0.1 nM [125I]-NKA from CHO-hNK2 membranes
Description: (§1) Filtration Assays: Stock solutions of compounds (10 mM) were prepared in DMSO and stored at −20° C. until use. Further dilutions were performed in DMSO to provide an 11-point concentration response curve (CRC) spanning final concentrations from 0.01 nM to 10 μM. Radioligand binding experiments were performed immediately after transferring 2 μL of each concentration of test compound to a 96-well plate. […] After drying for 1 h at 40° C., 50 μL of Microscint-20 was added to each filter plate and bound radioactivity was measured using a Microplate TopCount (Packard C9912). […] Filters were washed 4 times with 1 mL ice cold 0.9% NaCl and placed into pico vials with 4 mL of Filter Count.

human NK2 Receptor [4] = target: T1, human NK2 Receptor; assay: cell-based or functional assay; remark: listed apart in the source
human NK1 Receptor [5] = target: T2, human NK1 Receptor; assay: cell-based or functional assay; remark: listed apart in the source
human NK1 Receptor [6] = target: T2, human NK1 Receptor; assay: radioligand competition, displacement of 5.0 nM [3H]-septide from CHO-hNK1 membranes
Description: as §1

human NK2 Receptor [7] = target: T1, human NK2 Receptor; assay: ratio of Ki hNK1R/hNK2R from the radioligand competition assays
Description: as §1

Row | Binder | hNK2 EC50 (intracellular calcium mobilization, FLIPR, CHO-hNK2 cells) (human NK2 Receptor [1]) [nM] | hNK1 EC50 (intracellular calcium mobilization, FLIPR, CHO-hNK1 cells) (human NK1 Receptor [2]) [nM] | Ki (human NK2 Receptor [3]) [nM] | maximal calcium response compared to Neurokinin A (human NK2 Receptor [4]) [%] | maximal calcium response compared to Substance P (human NK1 Receptor [5]) [%] | Ki (human NK1 Receptor [6]) [nM] | hNK2 selectivity ratio (EC50 hNK1R/hNK2R) (human NK2 Receptor [1]) [ratio] | hNK2 selectivity ratio (human NK2 Receptor [7]) [ratio]
1 | B1 | 0.14 | 0.95 | 0.2 | > 80 | > 90 | 50.1 | – | –
2 | B2 | 0.16 | 0.3 | 0.12 | > 80 | > 90 | 20.9 | 2 | 167
3 | B3 | 0.19 | 0.16 | 0.31 | > 80 | > 90 | 8.32 | 0.8 | 27.1
4 | B4 | 0.18 | 6.31 | 2.11 | > 80 | > 90 | 257 | 36 | 122
5 | B5 | 0.15 | 1.83 | 0.88 | > 80 | > 90 | 95.5 | 12 | 108
6 | DKFVGLM-NH2 [Heptapeptide analog D, Asp-Lys-Phe-Val-Gly-Leu-Met-NH2] | – | – | – | > 80 | > 90 | – | – | –
7 | B6 | 0.08 | 5.84 | 0.59 | > 80 | > 90 | 331 | 70 | 558
8 | B7 | 1.16 | 29.5 | 6.85 | > 80 | > 90 | 1200 | 25 | 176
9 | B8 | 3 | 78.2 | 16.4 | > 80 | > 90 | 3090 | 26 | 189
10 | B9 | 0.2 | 1.71 | 1.74 | > 80 | > 90 | 126 | 9 | 72.5
